# T1: human TSLPR on Ba/F3-hTSLPR-hIL7Ra cells (human, UniProt Q9HC73 23-371)
# T1 sequence (looked up): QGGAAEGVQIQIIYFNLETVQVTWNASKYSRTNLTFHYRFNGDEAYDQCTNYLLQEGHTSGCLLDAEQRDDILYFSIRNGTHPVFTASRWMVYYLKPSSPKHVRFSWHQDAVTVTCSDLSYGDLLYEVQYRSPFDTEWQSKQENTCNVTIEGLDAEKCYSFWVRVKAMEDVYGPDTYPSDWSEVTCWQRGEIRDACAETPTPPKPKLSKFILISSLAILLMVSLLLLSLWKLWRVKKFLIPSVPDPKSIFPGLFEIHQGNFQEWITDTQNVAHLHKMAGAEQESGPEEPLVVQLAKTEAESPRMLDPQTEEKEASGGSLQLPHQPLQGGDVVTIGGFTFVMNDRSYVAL
# B1: mouse anti human TSLPR antibody 13H5 (antibody, mouse IgG1, V domains shown)
# VH: QVLLKQSGPSLVQPSQSLSITCTVSGFSLSRYGVHWVRQSPGKGLEWLGVIWRSGSTDYNAAFMSRLSITQDNSKSQVFFNMNSLQSDDSAIYYCAKKAFYVMDYWGQGTSVTVSS
# VL: DIQMTQTTSSLSASLGDRVTISCRASQDISIYLNWYQQKPDGTVKLLIYYTSRLHSGVPSRFSGSGSGTNFSLTITNLEEEDIATYFCQQGNTLPWTFGGGTKLEIKR
# notes: Mouse IgG1/kappa purified from hybridoma supernatant; also called m13H5; LB55.13H5.2C3
# What was measured:
# [1] = target: T1, human TSLPR on Ba/F3-hTSLPR-hIL7Ra cells; assay: cell-based or functional assay
# [2] = target: cynomolgus TSLPR on Ba/F3-cTSLPR-cIL7Ra cells (cynomolgus monkey); assay: cell-based or functional assay
# [3] = target: T2, cTSLPR-Ig (cynomolgus monkey); assay: ELISA, plate coated with TSLPR 50 ng/well, HRP goat anti-mouse detection
# T2 construct: also called cyTSLP R-hIg P749; Mam-Trans[FlagPreProTrypsin]DELTA2_NHP[Ig]
# Method: The ELISA measures the EC50 of certain mouse anti-TSLPR antibodies generated according to Example 2 are reported on Table 4. The antibodies were purified from hybridoma supernatants, and his-hTSLPR or cTSLPR-Ig was used to determine binding affinity.
# Coating of plates was performed as follows: TSLPR (50 ng per well) in PBS was incubated at 4° C. overnight. Plates were washed with 1 cycle (3 washes/cycle) on a Molecular Devices plate washer. Antibody was then titrated across a row of eight wells in the range of 3000 ng/mL to […] using serial 3-fold dilutions and incubated for 60 min. at 25° C. Plates were washed for 1 cycle, HRP-goat anti-mouse) (1:2,000 dilution) was added at 0.05 mL/well and incubated for 60 min at 25° C. Plates were washed for 1 cycles. ABTS substrate was added at 0.05 mL/well and incubated 10 min at 25 C. Plates read at) or A_{405 nm}. [0223]
# [4] = target: T2, cTSLPR-Ig; assay: SPR BIAcore T100, cyTSLPR-hIg amine-coupled on CM5, antibody as analyte, bivalent analyte model, n = 6
# Method: The kinetic binding activities of the mouse anti human TSLPR antibody 13H5, chimeric anti-human TSLPR 13H5 antibody, rat anti-human TSLPR antibody 18B3, and mouse anti-human TSLPR antibody 70E8 against both human (hu) and cynomolgus monkey (cyno) TSLPR were measured by surface plasmon resonance using a BIAcore T100 system (BIAcore AB, Upsalla, Sweden). Approximately 70RUs of […] were immobilized via amine coupling chemistry onto a Sensor Chip CM5 (Research grade, BR-1006-68). HBS-EP buffer (BR-1006-69) was used as the running buffer with a flow rate of 30 μL/min. Antibodies at varying concentrations ranging from 0.01 to 600 nM were injected over the immobilized hu or cyno TSLP surfaces at a flow rate of 30 μL/min. Following each injection cycle the CM5 chip surface was regenerated using a series of solutions (10 mM Glycine pH 1.5 and 25 mM NaOH respectively) at a flow rate of 75 μL/min.
# Background subtraction binding sensorgrams were used for analyzing the rate constant of association (ka) and dissociation (kd), and the equilibrium dissociation constant KD. The resulting data sets shown in Table 5 were fitted with a bivalent analyte model using the BlAevaluation software (version 1.0).
binder,measurement,setting,value
B1,"Avg IC50, inhibition of hTSLP-induced proliferation of Ba/F3-huTSLPR cells",[1],0.0121 µg/mL
same,"IC50 Assay I, Ba/F3-huTSLPR proliferation",[1],0.0127 µg/mL
same,"IC50 Assay II, Ba/F3-huTSLPR proliferation",[1],0.014 µg/mL
same,"IC50 Assay III, Ba/F3-huTSLPR proliferation",[1],0.0097 µg/mL
same,"Avg IC50, Ba/F3-cyTSLPR proliferation",[2],0.0129 µg/mL
same,"IC50 Assay I, Ba/F3-cyTSLPR proliferation",[2],0.0104 µg/mL
same,"IC50 Assay II, Ba/F3-cyTSLPR proliferation",[2],0.0148 µg/mL
same,"IC50 Assay III, Ba/F3-cyTSLPR proliferation",[2],0.0134 µg/mL
same,EC50,[3],> 0.001 µg/mL
same,Kd,[4],0.089 nM
same,koff,[4],7.1e-05 s⁻¹
same,kon,[4],800000 M⁻¹ s⁻¹
